# B1: ST3G12: Human anti-human STAT3 antibody; heavy chain variable SEQ ID NO: 3, light chain variable SEQ ID NO: 4 (antibody, V domains shown)
# VH: QVQLVQSGAEVKKPGASVKVSCKASGYTFTSYYMHWVRQAPGQGLEWMGIINPSGGSTSYAQKFQGRVTMTRDTSTSTVYMELSSLRSEDTAVYYCARSDYVHSFDIWGQGTMVTVSS
# VL: QPVLTQPPSASALLGASIKLTCTLSSEHSTYTVEWYQQRPGRSPQYIMNVKSDGSYNKGDGIPDRFMGSSSGADRYLTFSNLQSDDEAEYHCGESHRIDGQVGVVFGGGTKLTVL
# Experiments:
# MCF-10A cells = assay: Caveolin and clathrin-dependent compound 901a uptake in MCF-10A cells; format: cell-based, human; settings: 30 min pretreatment
# From the text: Clathrin-mediated endocytosis is mediated by small vesicles that have a morphologically characteristic coat made up of a complex of proteins that are mainly associated with the cytosolic protein clathrin. Caveolae are the most common reported non-clathrin-coated plasma membrane buds, which exist on the surface of many, but not all cell types. They consist of the cholesterol-binding protein caveolin (Vip21) with a bilayer enriched in cholesterol and glycolipids. Both clathrin mediated endocytosis and caveolae transport extracellular molecules into the cell. 5,000 cells were seeded per well in a 96 well plate, overnight. Cells were pretreated with the clathrin inhibitor Pitstop2 (30 uM or 60 uM) or the caveolin inhibitor filipin (0.5 ug/ml or 1.0 ug/ml) for 30 minutes. […] Cells were fixed and imaged with IncuCyte. DMSO and antibody only were used as controls.
# [1] = tested on: cellular antigens in U251 cells; assay: Cell binding of naked ST3G12 versus compound 901a in permeabilized U251 cells (HTFC); settings: 45 min room temperature, PE anti-human IgG
# Method: After 45 minutes at room temperature, cells were washed twice and incubated with phycoerythrin (PE) conjugated-anti-human IgG for 20 minutes at room temperature in the dark. Cells were then washed and analyzed by high throughput flow cytometry (HTFC). The results are shown in FIG. 9 for assessment of antibody binding to cellular antigens in U251 cells.
# STAT3 [2] = target: T1, STAT3 (Homo sapiens, UniProt P40763); assay: Cell binding assay of anti-STAT3 antibodies, fixed and permeabilized cells, flow cytometry; design: endogenous in cells; settings: MDA-MB-468 and U251 cells, serial dilutions, PE anti-human IgG
# Method: Next, the binding of the candidate anti-STAT3 antibodies to cellular targets was tested in cell binding assays using MDA-MB-435 breast cancer cells and U251 cells. The cells were seeded overnight in a 96 well plate, then fixed with PFA and permeabilized with methanol. Cells were incubated with serial dilutions of the anti-STAT3 antibody candidates ST1A5, ST3G12 and ST5G12 for one hour and 30 minutes. Following incubation, the cells were washed and incubated for 30 minutes with phycoerythrin (PE) conjugated anti-human IgG. Fluorescence was measured on an Intellicyte high-throughput flow cytometry analyzer. […] Bevacizumab (Avastin), a monoclonal antibody that inhibits vascular endothelial growth factor A (VEGF-A) was used as a negative control.
# STAT3 [3] = target: T1, STAT3; assay: IL-6-stimulated STAT3 phosphorylation ELISA in MCF-10A and MCF-7 cells; format: cell-based; design: endogenous in cells; settings: overnight pre-treatment, IL-6 10 or 40 ng/ml 20 min
# Method: Cells were pre-treated overnight with antibody, and then stimulated with various concentrations of IL-6 for 20 minutes (10 ng/ml or 40 ng/ml). IL-6 is a STAT3 activator. Cells were then lysed and the protein lysates were subjected to ELISA to determine the phosphorylation status. […] “OS-AIP” refers to an oligosaccharide conjugated bacterial AIP protein, used as a control.
# U251 cells = assay: Cell penetration in U251 cells by microscopy; format: cell-based; settings: 20 ug/mL, 2 hours at 37° C.
# Method: Briefly, previously cleaned glass coverslips were coated with collagen for 2 hours at 37° C. 100,000 U251 cells were seeded on the coverslips. Media was removed, and cells were rinsed once with fluorobrite. Next, 20 ug/mL of the specified antibody was added for 2 hours at 37° C. Cells were fixed in 4% PFA for 15 minutes and then permeabilized with 0.1% TritonX for 15 minutes. Cells were blocked with 3% BSA for 30 minutes and 1:250 GAH-Alexa fluor 488 was added for 1 hour. Next, 200× wheat germ agglutinin Alexa fluor 555 (WGA 555) and 1:1000 DAPI was added for 30 minutes. Cells were washed 3× with PBS and mounted with prolong gold anti-fade.
# GST protein = assay: Biacore binding to GST protein; settings: Biacore assay
# Method: (§1) Anti-human Fc antibody (GE, BR-1008-39) was immobilized on a CMS sensor chip to approximately 1000 RU using standard NHS/EDC coupling methodology. Antibodies (approximately 10 ug/ml) were captured for 60 seconds at a flow rate of 10 ul/min Recombinant human STAT3-GST was serially diluted 2-fold into running buffer (HBS-EP+, starting from […]). All measurements were conducted at a flow rate of 30 ul/min Surfaces were regenerated with 3M MgCl2 (from human antibody kit) for 60 seconds. A 1:1 (Langmuir) binding model was used to fit the data.
# STAT3 [4] = target: T1, STAT3; assay: Biacore T200 affinity to recombinant human STAT3-GST; settings: Biacore T200, 1:1 (Langmuir) binding model
# Method: as §1
# T1 sequence (P40763 whole entry): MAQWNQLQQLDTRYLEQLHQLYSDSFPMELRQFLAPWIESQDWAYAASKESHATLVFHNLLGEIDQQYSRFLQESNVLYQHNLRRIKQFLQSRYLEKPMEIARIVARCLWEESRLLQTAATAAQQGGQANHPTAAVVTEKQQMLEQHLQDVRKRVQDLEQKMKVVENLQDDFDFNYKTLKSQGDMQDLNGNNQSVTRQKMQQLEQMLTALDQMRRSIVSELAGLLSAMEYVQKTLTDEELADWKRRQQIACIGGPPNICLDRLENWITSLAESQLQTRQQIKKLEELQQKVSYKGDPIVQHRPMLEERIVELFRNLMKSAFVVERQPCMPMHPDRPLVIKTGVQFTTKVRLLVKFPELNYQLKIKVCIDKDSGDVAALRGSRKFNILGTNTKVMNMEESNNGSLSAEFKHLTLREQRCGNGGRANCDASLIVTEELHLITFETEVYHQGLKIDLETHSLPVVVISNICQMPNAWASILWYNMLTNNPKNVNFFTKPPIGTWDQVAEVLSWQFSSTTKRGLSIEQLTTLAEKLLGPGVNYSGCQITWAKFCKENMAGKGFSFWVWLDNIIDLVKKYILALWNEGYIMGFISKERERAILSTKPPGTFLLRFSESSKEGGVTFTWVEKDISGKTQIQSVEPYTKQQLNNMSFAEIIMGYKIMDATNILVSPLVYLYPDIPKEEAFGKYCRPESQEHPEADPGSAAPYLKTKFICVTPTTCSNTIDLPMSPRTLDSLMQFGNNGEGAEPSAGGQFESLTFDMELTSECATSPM
molecule,measurement,setting,value
"O=C1NC(=NS(=O)(=O)c2cccc3ccccc23)S/C1=C\c1ccc(Br)cc1 [PS2, Pitstop2]",effect of inhibitor on compound 901a uptake,MCF-10A cells; inhibitor 30 uM and 60 uM,inhibited compound 901a uptake
CCCCC[C@@H](O)[C@H]1C(=O)O[C@H](C)[C@@H](O)/C=C/C=C/C=C/C=C/C=C(\C)[C@@H](O)C[C@H](O)C[C@H](O)C[C@H](O)C[C@H](O)C[C@H](O)C[C@@H]1O [filipin],effect of inhibitor on compound 901a uptake,MCF-10A cells; inhibitor 0.5 ug/ml,little effect
same,effect of inhibitor on compound 901a uptake,MCF-10A cells; inhibitor 1.0 ug/ml,greater effect
B1,binding to cellular antigens in U251 cells,[1],considerably lower
same,binding to STAT3 / cellular antigens (MFI),STAT3 [2],bound STAT3
same,effect on STAT3 phosphorylation,STAT3 [3],little to no effect
same,cell penetration / internalization,U251 cells,no internalization
same,binding to GST protein,GST protein,No binding
same,Rmax,STAT3 [4],174 RU
same,kd,STAT3 [4],0.000322 s⁻¹
same,ka,STAT3 [4]; STAT3-GST from 100 nm,59700 M⁻¹ s⁻¹
